T1: MERS-CoV Spike Protein (ECD, aa 1-1297, His Tag) (Sino 40069-[change]) (MERS-CoV, UniProt K9N5Q8 18-1297)
T1 sequence: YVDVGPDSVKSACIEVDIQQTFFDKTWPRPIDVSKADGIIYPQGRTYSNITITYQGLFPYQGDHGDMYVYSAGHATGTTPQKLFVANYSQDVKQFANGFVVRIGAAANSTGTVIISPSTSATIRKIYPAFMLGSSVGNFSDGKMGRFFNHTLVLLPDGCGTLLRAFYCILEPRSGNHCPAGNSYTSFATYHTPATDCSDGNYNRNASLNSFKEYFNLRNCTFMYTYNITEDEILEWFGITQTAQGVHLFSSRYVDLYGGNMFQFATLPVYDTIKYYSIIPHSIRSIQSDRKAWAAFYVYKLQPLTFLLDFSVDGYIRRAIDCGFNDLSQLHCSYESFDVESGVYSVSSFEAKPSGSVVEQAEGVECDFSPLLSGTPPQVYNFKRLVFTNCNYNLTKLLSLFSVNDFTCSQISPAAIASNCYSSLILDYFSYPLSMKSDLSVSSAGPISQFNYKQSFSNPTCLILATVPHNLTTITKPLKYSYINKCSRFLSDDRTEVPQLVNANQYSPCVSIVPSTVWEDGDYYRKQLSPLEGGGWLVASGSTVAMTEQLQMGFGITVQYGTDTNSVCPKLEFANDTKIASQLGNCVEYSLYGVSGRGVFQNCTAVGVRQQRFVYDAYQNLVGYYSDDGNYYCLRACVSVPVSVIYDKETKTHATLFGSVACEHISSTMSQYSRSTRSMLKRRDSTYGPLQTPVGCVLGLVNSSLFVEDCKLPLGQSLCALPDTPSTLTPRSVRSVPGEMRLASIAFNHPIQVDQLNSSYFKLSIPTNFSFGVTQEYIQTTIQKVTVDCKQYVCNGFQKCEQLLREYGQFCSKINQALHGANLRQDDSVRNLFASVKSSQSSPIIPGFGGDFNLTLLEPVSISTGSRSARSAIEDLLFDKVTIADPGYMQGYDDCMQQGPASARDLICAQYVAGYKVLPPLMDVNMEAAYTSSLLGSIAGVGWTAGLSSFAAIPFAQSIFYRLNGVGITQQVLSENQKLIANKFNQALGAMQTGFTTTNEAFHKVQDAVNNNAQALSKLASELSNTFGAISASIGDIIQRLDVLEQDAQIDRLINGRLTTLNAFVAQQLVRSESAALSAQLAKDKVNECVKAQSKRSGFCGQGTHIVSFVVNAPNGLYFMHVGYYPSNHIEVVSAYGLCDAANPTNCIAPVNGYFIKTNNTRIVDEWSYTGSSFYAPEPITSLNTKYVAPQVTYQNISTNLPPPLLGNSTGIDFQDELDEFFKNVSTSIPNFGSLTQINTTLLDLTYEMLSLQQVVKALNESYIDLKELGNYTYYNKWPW

T2: MERS-CoV (NCoV/Novel coronavirus) Spike Protein fragment (RBD, aa 367-606, His Tag) (Sino 40071-V08B1) (MERS-CoV, UniProt K9N5Q8 367-606)
T2 sequence: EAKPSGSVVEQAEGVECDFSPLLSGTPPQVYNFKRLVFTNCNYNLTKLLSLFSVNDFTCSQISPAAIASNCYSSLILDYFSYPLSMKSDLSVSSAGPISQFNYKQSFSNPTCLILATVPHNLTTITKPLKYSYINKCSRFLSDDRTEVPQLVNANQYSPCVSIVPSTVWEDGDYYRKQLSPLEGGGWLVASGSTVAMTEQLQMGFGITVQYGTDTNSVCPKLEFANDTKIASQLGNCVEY

T3: MERS-CoV (NCoV/Novel coronavirus) Spike Protein S1 Protein (aa 1-725, His Tag) (Sino 40069-V08B1) (MERS-CoV, UniProt K9N5Q8 18-725)
T3 sequence: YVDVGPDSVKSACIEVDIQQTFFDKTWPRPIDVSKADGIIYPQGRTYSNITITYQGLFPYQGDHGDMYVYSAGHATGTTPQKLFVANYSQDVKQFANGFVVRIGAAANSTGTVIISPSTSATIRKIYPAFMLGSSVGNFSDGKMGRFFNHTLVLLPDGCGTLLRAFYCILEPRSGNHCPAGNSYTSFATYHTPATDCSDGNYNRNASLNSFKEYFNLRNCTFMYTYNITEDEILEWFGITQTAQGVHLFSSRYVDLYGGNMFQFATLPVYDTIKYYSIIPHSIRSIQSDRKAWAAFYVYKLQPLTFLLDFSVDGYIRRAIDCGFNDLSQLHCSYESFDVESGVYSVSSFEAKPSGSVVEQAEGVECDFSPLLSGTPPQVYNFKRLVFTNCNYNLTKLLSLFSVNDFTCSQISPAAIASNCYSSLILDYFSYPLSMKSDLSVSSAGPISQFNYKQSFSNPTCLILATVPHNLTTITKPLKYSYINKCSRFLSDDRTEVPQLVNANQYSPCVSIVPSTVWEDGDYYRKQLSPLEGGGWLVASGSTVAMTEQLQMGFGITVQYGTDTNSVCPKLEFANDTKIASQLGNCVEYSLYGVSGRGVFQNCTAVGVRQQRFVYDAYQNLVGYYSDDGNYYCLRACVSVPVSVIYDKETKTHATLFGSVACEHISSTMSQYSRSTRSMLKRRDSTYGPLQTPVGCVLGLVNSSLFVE

T4: MERS-CoV Spike Protein S2 (aa 726-1296, His Tag) (Sino 40070-[change]) (MERS-CoV, UniProt K9N5Q8 726-1296)
T4 sequence: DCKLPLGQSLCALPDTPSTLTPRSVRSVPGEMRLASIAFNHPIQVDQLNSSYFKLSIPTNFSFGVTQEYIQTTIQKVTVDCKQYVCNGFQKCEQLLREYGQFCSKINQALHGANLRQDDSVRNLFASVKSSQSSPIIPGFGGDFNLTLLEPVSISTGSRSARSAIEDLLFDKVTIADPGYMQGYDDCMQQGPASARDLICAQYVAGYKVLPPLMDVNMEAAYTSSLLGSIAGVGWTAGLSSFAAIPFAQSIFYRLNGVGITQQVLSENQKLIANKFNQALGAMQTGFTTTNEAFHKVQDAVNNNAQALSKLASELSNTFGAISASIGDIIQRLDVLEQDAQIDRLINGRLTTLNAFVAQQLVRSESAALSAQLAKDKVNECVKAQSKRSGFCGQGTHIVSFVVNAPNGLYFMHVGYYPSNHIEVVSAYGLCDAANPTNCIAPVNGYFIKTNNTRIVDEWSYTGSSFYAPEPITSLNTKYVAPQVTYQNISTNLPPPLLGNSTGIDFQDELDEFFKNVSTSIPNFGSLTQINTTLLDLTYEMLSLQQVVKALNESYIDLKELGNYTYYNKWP


Legend:
[1] = biological target: T1, MERS-CoV Spike Protein (ECD, aa 1-1297, …); experiment: Luminex, supernatant
[2] = biological target: T2, MERS-CoV (NCoV/Novel coronavirus) Spike …; experiment: Luminex, supernatant
[3] = biological target: Human SARS Coronavirus Spike S1 Subunit Protein (His Tag) (Sino 40150-V08B1) (Human SARS Coronavirus, UniProt P59594 14-667); experiment: Luminex, supernatant
[4] = biological target: SARS-CoV-2 Spike Protein (RBD)(R319-F541).hFc (SARS-CoV-2); experiment: Luminex, supernatant
[5] = biological target: T3, MERS-CoV (NCoV/Novel coronavirus) Spike …; experiment: Luminex, supernatant
[6] = biological target: SARS-CoV-2 Spike Protein (RBD)(R319-F541).mFc (SARS-CoV-2); experiment: Luminex, supernatant
[7] = biological target: T4, MERS-CoV Spike Protein S2 (aa 726-1296, …); experiment: Luminex, supernatant
[8] = biological target: Human SARS Coronavirus Spike S1 Subunit Protein (His Tag) (Sino 40150-V08B1) (Human SARS Coronavirus, UniProt P59594 14-667); experiment: Luminex bead binding, supernatant

Binder	MFI [1] [MFI]	MFI [2] [MFI]	MFI [3] [MFI]	MFI [4] [MFI]	MFI [5] [MFI]	MFI [6] [MFI]	MFI [7] [MFI]	Binding signal (MFI) [8] [MFI]
mAb10930 (antibody, V domains shown) VH: EVQLVESGGGLVQPGRSLRLSCAASGFTFDDYAMYWVRQAPGKGLEWVSGISWNSGSIGYADSVKGRFTISRDNAKNSLYLQMNSLRAADTALYYCAKDKDWNSRGYYYYGMDVWGQGTTVTVSS VL: not shown	16	27	19	28900	22	28600	20	
mAb10920 (antibody, V domains shown) VH: QVQLVESGGGVVQPGRSLRLSCAASGFTFSYYGMHWVRQAPGKGLEWVAVIWYDGSNKFYADSVKGRFTISRDNSKNTLYLQMNSLRAEDTAVYYCAAARPGYYYGMDVWGQGTTVTVSS VL: DIQMTQSPSSLSASVGDRVTITCRASQGISNYLAWFQQKPGKAPNSLIYAASSLQRGVPSKFSGSGSGTDFTLTISSLQPEDFATYYCQQYNSYPRTFGQGTKVEIKR	24	39	26	36800	27	36400	30	
mAb10967 (antibody, V domains shown) VH: EVQLVESGGGLVQPGGSLRLSCAASGFTVSSNYMSWVRQAPGKGLEWVSVIYPGGSTFYADSVKGRFTISRDNSKNTLYLQMNSLRAEDTAVYYCARDQRDFAWGQGTLVTVSS VL: DIQMTQSPSSLSASVGDRVTITCQASQDISNYLNWYQQKPGKAPKLLIYDASNLETGVPSRFSGSGSGTDFTFTISGLQPEDIATYYCQQYDNLPPTFGQGTRLEIKR								21
mAb10954 (antibody, V domains shown) VH: EVQLVESGGGLVQPGGSLRLSCAASGITVSSNYMSWVRQAPGKGLEWVSLIYSGGSTYYADSVKGRFTISRDNSKNTLYLQMNSLRVEDTAVYYCARDHGMAAAGYNYWGQGTLVTVSS VL: DIQMTQSPSSLSASVGDRVTITCQASQDINKYLNWYQQKPGKAPKLLIYDASNLETGVPSRFSGSGSGTDFTFTINSLQPEDFATYFCQQYDNLPPAFGQGTKVEIKR								15
mAb10938 (antibody, V domains shown) VH: EVQLVESGGGLVQPGGSLRLSCAVSGFTVSSNYMSWVRQAPGKGLEWVSLIYSGGSTFYADSVKGRFTISRHNSKNTLYLQMNSLRAEDTAVYYCAREGGYSYDYNYWGQGTLVTVSS VL: DIQMTQSPSSLSASVGDRVTITCQASQDIRNYLNWYQQKPGKAPKLLIYDASNLETGVPSRFSGIGSGTDFTFTISSLQPEDIATYYCQQYDNLPITFGQGTRLEIKR	16	25	19	29600	20	30500	19	
mAb10989 (antibody, V domains shown) VH: QVQLVQSGAEVKKPGASVKVSCKASGYIFTGYYMHWVRQAPGQGLEWMGWINPNSGGANYAQKFQGRVTLTRDTSITTVYMELSRLRFDDTAVYYCARGSRYDWNQNNWFDPWGQGTLVTVSS VL: QSALTQPASVSGSPGQSITISCTGTSSDVGTYNYVSWYQQHPGKAPKLMIFDVSNRPSGVSDRFSGSKSGNTASLTISGLQAEDEADYYCSSFTTSSTVVFGGGTKLTVLG								21
mAb10965 (antibody, V domains shown) VH: EVQLVESGGGLIQPGGSLRLSCAASVFTVSYNYMSWVRQAPGKGLEWVSVIYSGGSTYYADSVKGRFTISRDNSKNTLYLQMNSLRAEDTAVYYCARALPGWGGSFEYFDYWGQGTLVTVSS VL: not shown								16
mAb10984 (antibody, V domains shown) VH: EVQLVESGGGLVQPGGSLRLSCAASGLTVNRNYMSWVRQAPGKGLEWVSLIYSGGSTYYADSVKGRFTISRDNSKNTLYLQMNSLRLEDTAVYYCARGELGIPYGMDVWGQGTTVTVSS VL: QSVLTQPPSVSAAPGQKVTISCSGSSSNIGNNYVSWYQQLPGTAPKLLIYDNNKRPSGIPDRFSGSKSGTSATLGITGLQTGDEADYYCGTWDSSLSAGVFGGGTKLTVLG	21	29	22	28400	20	28400	25	
mAb10966 (antibody, V domains shown) VH: EVQLVESGGGLVQPGGSLRLSCAASGLTVSSNYMSWVRQAPGKGLEWVSVIYSGGSTFYADSVKGRFTISRDNSKNTLYLQMNSLRPEDTAVYYCAREGRIAATGYGMDVWGQGTTVTVSS VL: not shown								20
mAb10923 (antibody, V domains shown) VH: QVQLVQSGAEVKKPGASVKVSCKASGYTFINYYIHWVRQAPGQGLEWMGWINPNSGGTNYAQKFQGRVTMTRDTSISTAYMELSRLRSDDTAVYYCAIITIFGVVTWFDPWGQGTLVTVSS VL: not shown	23	37	29	37800	25	37400	36	
